# Measured values: article PMC9482650, “Quantitative fragmentomics allow affinity mapping of interactomes” (Nature Communications, 2022)
# B1: ZW10 (protein, UniProt O43264 2-779, looked up)
# Centromere/kinetochore …: ASFVTEVLAHSGRLEKEDLGTRISRLTRRVEEIKGEVCNMISKKYSEFLPSMQSAQGLITQVDKLSEDIDLLKSRIESEVRRDLHVSTGEFTDLKQQLERDSVVLSLLKQLQEFSTAIEEYNCALTEKKYVTGAQRLEEAQKCLKLLKSRKCFDLKILKSLSMELTIQKQNILYHLGEEWQKLIVWKFPPSKDTSSLESYLQTELHLYTEQSHKEEKTPMPPISSVLLAFSVLGELHSKLKSFGQMLLKYILRPLASCPSLHAVIESQPNIVIIRFESIMTNLEYPSPSEVFTKIRLVLEVLQKQLLDLPLDTDLENEKTSTVPLAEMLGDMIWEDLSECLIKNCLVYSIPTNSSKLQQYEEIIQSTEEFENALKEMRFLKGDTTDLLKYARNINSHFANKKCQDVIVAARNLMTSEIHNTVKIIPDSKINVPELPTPDEDNKLEVQKVSNTQYHEVMNLEPENTLDQHSFSLPTCRISESVKKLMELAYQTLLEATTSSDQCAVQLFYSVRNIFHLFHDVVPTYHKENLQKLPQLAAIHHNNCMYIAHHLLTLGHQFRLRLAPILCDGTATFVDLVPGFRRLGTECFLAQMRAQKGELLERLSSARNFSNMDDEENYSAASKAVRQVLHQLKRLGIVWQDVLPVNIYCKAMGTLLNTAISEVIGKITALEDISTEDGDRLYSLCKTVMDEGPQVFAPLSEESKNKKYQEEVPVYVPKWMPFKELMMMLQASLQEIGDRWADGKGPLAAAFSSSEVKALIRALFQNTERRAAALAKIK
# B2: UBA6 (protein, UniProt A0AVT1 1-1052, looked up)
# Ubiquitin-like …: MEGSEPVAAHQGEEASCSSWGTGSTNKNLPIMSTASVEIDDALYSRQRYVLGDTAMQKMAKSHVFLSGMGGLGLEIAKNLVLAGIKAVTIHDTEKCQAWDLGTNFFLSEDDVVNKRNRAEAVLKHIAELNPYVHVTSSSVPFNETTDLSFLDKYQCVVLTEMKLPLQKKINDFCRSQCPPIKFISADVHGIWSRLFCDFGDEFEVLDTTGEEPKEIFISNITQANPGIVTCLENHPHKLETGQFLTFREINGMTGLNGSIQQITVISPFSFSIGDTTELEPYLHGGIAVQVKTPKTVFFESLERQLKHPKCLIVDFSNPEAPLEIHTAMLALDQFQEKYSRKPNVGCQQDSEELLKLATSISETLEEKPDVNADIVHWLSWTAQGFLSPLAAAVGGVASQEVLKAVTGKFSPLCQWLYLEAADIVESLGKPECEEFLPRGDRYDALRACIGDTLCQKLQNLNIFLVGCGAIGCEMLKNFALLGVGTSKEKGMITVTDPDLIEKSNLNRQFLFRPHHIQKPKSYTAADATLKINSQIKIDAHLNKVCPTTETIYNDEFYTKQDVIITALDNVEARRYVDSRCLANLRPLLDSGTMGTKGHTEVIVPHLTESYNSHRDPPEEEIPFCTLKSFPAAIEHTIQWARDKFESSFSHKPSLFNKFWQTYSSAEEVLQKIQSGHSLEGCFQVIKLLSRRPRNWSQCVELARLKFEKYFNHKALQLLHCFPLDIRLKDGSLFWQSPKRPPSPIKFDLNEPLHLSFLQNAAKLYATVYCIPFAEEDLSADALLNILSEVKIQEFKPSNKVVQTDETARKPDHVPISSEDERNAIFQLEKAILSNEATKSDLQMAVLSFEKDDDHNGHIDFITAASNLRAKMYSIEPADRFKTKRIAGKIIPAIATTTATVSGLVALEMIKVTGGYPFEAYKNCFLNLAIPIVVFTETTEVRKTKIRNGISFTIWDRWTVHGKEDFTLLDFINAVKEKYGIEPTMVVQGVKMLYVPVMPGHAKRLKLTMHKLVKPTTEKKYVDLTVSFAPDIDGDEDLPGPPVRYYFSHDTD
# B3: SRSF3 (protein, UniProt P84103 1-164, looked up)
# Serine/arginine-rich splicing …: MHRDSCPLDCKVYVGNLGNNGNKTELERAFGYYGPLRSVWVARNPPGFAFVEFEDPRDAADAVRELDGRTLCGCRVRVELSNGEKRSRNRGPPPSWGRRPRDDYRRRSPPPRRRSPRRRSFSRSRSRSLSRDRRRERSLSRERNHKPSRSFSRSRSRSRSNERK
# B4: ARHGEF6 (protein, UniProt Q15052 1-776, looked up)
# Rho guanine nucleotide …: MNPEEQIVTWLISLGVLESPKKTICDPEEFLKSSLKNGVVLCKLINRLMPGSVEKFCLDPQTEADCINNINDFLKGCATLQVEIFDPDDLYSGVNFSKVLSTLLAVNKATEDQLSERPCGRSSSLSAANTSQTNPQGAVSSTVSGLQRQSKTVEMTENGSHQLIVKARFNFKQTNEDELSVCKGDIIYVTRVEEGGWWEGTLNGRTGWFPSNYVREIKSSERPLSPKAVKGFETAPLTKNYYTVVLQNILDTEKEYAKELQSLLVTYLRPLQSNNNLSTVEVTSLLGNFEEVCTFQQTLCQALEECSKFPENQHKVGGCLLSLMPHFKSMYLAYCANHPSAVNVLTQHSDELEQFMENQGASSPGILILTTNLSKPFMRLEKYVTLLQELERHMEDTHPDHQDILKAIVAFKTLMGQCQDLRKRKQLELQILSEPIQAWEGEDIKNLGNVIFMSQVMVQYGACEEKEERYLMLFSNVLIMLSASPRMSGFIYQGKIPIAGTVVTRLDEIEGNDCTFEITGNTVERIVVHCNNNQDFQEWLEQLNRLIRGPASCSSLSKTSSSSCSAHSSFSSTGQPRGPLEPPQIIKPWSLSCLRPAPPLRPSAALGYKERMSYILKESSKSPKTMKKFLHKRKTERKPSEEEYVIRKSTAALEEDAQILKVIEAYCTSANFQQGHGSSTRKDSIPQVLLPEEEKLIIEETRSNGQTIMEEKSLVDTVYALKDEVRELKQENKRMKQCLEEELKSRRDLEKLVRRLLKQTDECIRGESSSKTSILP
# What was measured:
# [1] = test system: HEK293T cells; test: Label-free MS proteome of stable cell lines expressing HPV16 E6 or E6ΔPBM; format: cell-based, human; conditions: protein level; for Difference log2 E6/Ctrl / Ratio E6/Ctrl: E6 cell line vs control; for Difference log2 dPBM/E6 / Ratio dPBM/E6: dPBM cell line vs E6 cell line; for Difference log2 dPBM/Ctrl / Ratio dPBM/Ctrl: dPBM cell line vs control
# Procedure, shortened: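 Confluent HEK293T lysates in HEPES-KOH pH 7.5, 1% Triton X-100 buffer, TCA-precipitated, reduced, alkylated, Lys-C then trypsin digested. nanoLC (90 min gradient) on LTQ-Orbitrap Elite, TOP20 CID data-dependent acquisition; SequestHT search of human SwissProt, 1% FDR. Label-free quantification by peptide XIC intensity, technical triplicates.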
# [2] = test system: HaCat cell extract preys; test: PDZ-AP-MS, biotinylated MBP-PDZ baits; format: binding, human
# Procedure, shortened: (§1)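 Biotinylated His6-AviTag-MBP-PDZ baits, or MBP alone, saturated streptavidin resin and were then biotin-blocked. Each was incubated with 1 mg cell lysate for 2 h at 4 °C, washed, and eluted in 8 M urea. Eluates were digested with Lys-C/trypsin, run by nanoLC-MS/MS on an Orbitrap Elite (top20 CID) and searched against human SwissProt.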
# [3] = test system: HeLa cell extract preys; test: PDZ-AP-MS, biotinylated MBP-PDZ baits; format: binding, human; conditions: PDZ-AP-MS fold change of the PBM-protein prey
# Procedure, shortened: as §1
# [4] = test system: Jurkat cell extract preys; test: PDZ-AP-MS, biotinylated MBP-PDZ baits; format: binding, human; conditions: for Difference log2: enrichment of prey
# Procedure, shortened: as §1
# [5] = PDZ-AP-MS fold change of the PBM-protein prey, bait MBP-PDZ DLG1_1
# [6] = PDZ-AP-MS fold change of the PBM-protein prey, bait MBP-PDZ DLG1_2
# [7] = PDZ-AP-MS fold change of the PBM-protein prey, bait MBP-PDZ SCRIB_1
# [8] = PDZ-AP-MS fold change of the PBM-protein prey, bait MBP-PDZ SCRIB_2
# [9] = PDZ-AP-MS fold change of the PBM-protein prey, bait MBP-PDZ SNX27
# [10] = PDZ-AP-MS fold change of the PBM-protein prey, bait MBP-PDZ TX1BP3
# [11] = bait SCRIB_1 PDZ, fold change of prey
molecule,measurement,setting,value
B1,Difference log2 E6/Ctrl,[1],1.251
same,Ratio E6/Ctrl,[1],2.38
same,Difference log2 dPBM/E6,[1],-3.211
same,Ratio dPBM/E6,[1],0.108
same,Difference log2 dPBM/Ctrl,[1],-1.96
same,Ratio dPBM/Ctrl,[1],0.2569
B2,Difference log2 E6/Ctrl,[1],-0.8956
same,Ratio E6/Ctrl,[1],0.5375
same,Difference log2 dPBM/E6,[1],0.6111
same,Ratio dPBM/E6,[1],1.527
same,Difference log2 dPBM/Ctrl,[1],-0.2845
same,Ratio dPBM/Ctrl,[1],0.821
B3,"Fold changes, HaCat, DLG1_1",[2]; [5],0.6471
same,"Fold changes, HaCat, DLG1_2",[2]; [6],0.7027
same,"Fold changes, HaCat, SCRIB_1",[2]; [7],0.4366
same,"Fold changes, HaCat, SCRIB_2",[2]; [8],0.378
same,"Fold changes, HaCat, SNX27",[2]; [9],0.5499
same,"Fold changes, HaCat, TX1BP3",[2]; [10],0.6457
same,"Fold changes, HeLa, DLG1_1",[3]; bait MBP-PDZ DLG1_1,8.89
same,"Fold changes, HeLa, DLG1_2",[3]; bait MBP-PDZ DLG1_2,0.7503
same,"Fold changes, HeLa, SCRIB_1",[3]; bait MBP-PDZ SCRIB_1,8.2529
same,"Fold changes, HeLa, SCRIB_2",[3]; bait MBP-PDZ SCRIB_2,6.813
same,"Fold changes, HeLa, SNX27",[3]; bait MBP-PDZ SNX27,0.891
same,"Fold changes, HeLa, TX1BP3",[3]; bait MBP-PDZ TX1BP3,0.5408
same,"Fold changes, Jurkat, DLG1_1",[4]; [5],0.942
same,"Fold changes, Jurkat, DLG1_2",[4]; [6],1.581
same,"Fold changes, Jurkat, SCRIB_1",[4]; [7],0.6991
same,"Fold changes, Jurkat, SCRIB_2",[4]; [8],0.9858
same,"Fold changes, Jurkat, SNX27",[4]; [9],1.323
same,"Fold changes, Jurkat, TX1BP3",[4]; [10],0.7942
B4,Difference log2,"[2]; bait SCRIB_1 PDZ vs MBP, enrichment of prey",5.7166
same,Ratio SCRIB_1/MBP,[2]; [11],52.5856
same,Difference log2,[4]; bait SCRIB_1 PDZ vs MBP,4.28
same,Ratio SCRIB_1/MBP,[4]; [11],19.4266
same,Difference log2,[4]; bait TX1BP3 PDZ vs MBP,7.045
same,Ratio TX1BP3 / MBP,"[4]; bait TX1BP3 PDZ, fold change of prey",132.089
